Measured values: patent publication US20250161428A1, “PREVENTING/TREATING PSEUDOMONAS AERUGINOSA INFECTION” (priority 2022, published 2025)

B1: 1B1: mouse IgM monoclonal antibody to the A-PS terminus; VH SEQ ID NO: 4, VL SEQ ID NO: 8 (antibody, V domains shown)
VH: DVKLVESGGGLVKVGGSLKISCAASGFPFSDYYMAWVGQTPEKRLELVAAINGDGGTTYYPDTVKGRFIISRDNAKNTLYLQMSSLRSEDTALYYCVRGRRITGTGAIDYWGQGTSVTVSS
VL: QIFLTQSPVILSASPGEKVTMTCSATSNISYMYRYQQKPGSSPKPWIYGTSNLASRVPARFSGSGSGTSYSLTISNMEAEDAATYYCQIYHSYPYTFGGGTKLEIK
B2: 3C4: mouse IgG2b monoclonal antibody to the A-PS terminus; VH SEQ ID NO: 22, VL SEQ ID NO: 26 (antibody, V domains shown)
VH: EVKLVESGGGLVQPGGSLRLSCATSGFTFTDYYMSWVRQPPGKALEWLGFIRNKANGYTTEYSASVKGRFTISRDNSQSILYLQMNTLRAEDSATYYCTRAIYYGYDGFAYWGQGTLVTVSA
VL: DAVMTQTPLSLPVSLGDQASISCRSSQSLENSNGNTYLNWYLQKPGQSPQLLIYRVSNRFSGVLDRFSGSGSGTDFTLKISRVEAEDLGVYFCLQVTHVPFTFGSGTKLEIK

Tests used:
purified PAO1 LPS = experiment: mAb competition ELISA; format: binding, P. aeruginosa; conditions: PAO1 LPS coated plates; 3C4 at 62.5 μg/ml
Method: (§1) The plate was washed and mAb 3C4 was added at a constant concentration (62.5 μg/ml). A secondary mAb specific for mAb 3C4 was added and absorbance was measured after a colour reagent was added (line with square markers). The absorbance obtained when 3C4 was added to the plate without 1B1 competition is shown by the line with a triangle marker.
as §1, with “to” for “to the”, “3B8” for “1B1”
mAb competition ELISA: Wells of Nunc Maxisorp EIA plates were coated with 1 μg of P. aeruginosa LPS in PBS overnight at 4° C. and then brought to RT before use. Plates were blocked with 1% BSA-PBS for 1 h at RT, and then wells were washed with PBS-T. One mAb (1B1 or 3B8) was titrated and added to the plate for 1 h at RT. Following washing with PBS-T, the second mAb (3C4) was added at a pre-determined concentration and allowed to incubate for 1 h at RT. Following washing with PBS-T, AP-labeled goat anti-mouse IgG2b (Southern Biotech) specific for mAb 3C4, diluted 1:250 in 1% BSA-PBS was added for 1 h at RT. The plates were then washed with PBS-T and developed with Phosphatase Substrate System (Kirkegaard and Perry Laboratories). After 60 min absorbance was measured at 405 nm using a microtiter plate reader.

[1] = tested on: killed whole cells of P. aeruginosa strains; experiment: ELISA binding of mAbs to killed whole cells; conditions: for range of P. aeruginosa strains recognised: summary statement, serotype strains and clinical isolates
Method: FIGS. 11A, 11B, and 11C show ELISA analysis of binding of 1B1 (FIG. 11A), 3B8 (FIG. 11B), and 3C4 (FIG. 11C) purified monoclonal antibodies (mAbs) (all at 100 μg/ml) to killed whole cells of P. aeruginosa strains NRCC #'s 6678, 6668-70, 6954-60 and negative control strains M. catarrhalis 6541 and N. meningitidis 6263 (see Table 1 for full details of strains).
(§2) ELISA: The binding of anti-P. aeruginosa A-band terminal epitope mAbs and polyclonal sera to BSA conjugates, purified LPS and to whole cells was evaluated by ELISA as described previously.

[2] = tested on: purified LPS antigens of P. aeruginosa strains; experiment: ELISA binding of mAbs to purified LPS
Method: as §2

Molecule	epitope relation in competition ELISA with mAb 3C4 (purified PAO1 LPS)	cross reactivity to a set of clinical isolates ([1]; killed whole cells, purified mAbs at 100 μg ml^−1)	cross reactivity to killed whole cells of A-band locus mutants and ATCC type strains of common clinical serotypes ([1]; purified mAbs at 100 μg/ml)	range of P. aeruginosa strains recognised [1]	recognition of purified LPS from A-band locus mutants PAO1 (wzy::Gm)(Δpa5457) and PAO1 (wzy::Gm)(Δpa5458) [2]
B1	recognised a unique epitope compared to 3C4	broad cross reactivity	the only mAb that was cross reactive	majority of P. aeruginosa strains tested were recognised	could recognise
B2	recognised similar overlapping epitopes			recognition restricted to the wt serotype 5 strains PAO1 BAA-47 and 5937	
